The nanobody polyreactivity screen of Harvey et al. (2022)

Assay: yeast display, Sf9 membrane polyspecificity reagent, FACS + sequencing; frameworks hold sequencing errors
Outline: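 In a synthetic yeast display library (Saccharomyces cerevisiae BJ5465), nanobody expression was induced with galactose for 36–48 hours. FACS gates were set low and high (top ~1%) using anti-HA fluorescence for expression and streptavidin fluorescence for binding of the Sf9 membrane reagent. Each polyreactivity label is drawn from the gate of origin.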

Row | Sequence | polyreactivity (PSR sort gate)
1 | QVQLVESGGGLVQAGGSLRLICAASGSTLDKYAMGWDRPAPGKERELVAAISSSGGSTYYADSVKGRFTISRDNAKNTVYLQMNSLKPEDTAVYYCAARFFRGRYLDDYWGQGTQVTVSS | high polyreactivity
2 | QVQLVESGGGLVQAGGSLRLSCAASGIIFGYNVMGWYRQAPGKERELVAAISGSGSSTYYADSVKGRFTISRDNAKNTVYLQMNSLKPEDTAVYYCARQRYEYRTTYYYWGQGTQVTVSS | high polyreactivity
3 | QVQLVESGGGLVQAGGSLRLSCAASGYTFSGYAMGWYRQAPGKERELVAAITSSGGTTYYADSVKGRFTISRDNAKNTVYLQMNSLKPEDTAVYYCNAYYSHYGDTEDYYWGQGTQVTVSS | high polyreactivity
4 | QFQLEYSGGGLVQAGGSLRLSFASSGSTLARNAMGWYRQATVKERELVPSINGRTTRTYYADSVKGRFTISRDNAKNTVYLQMNSLKPEDTAVYYCAADPPGYVYGKRYYWGQGTQVTVSS | high polyreactivity
5 | QVQLVESGGGLVHAGGSLRLSCAASGSTVSYYAMGWYRQAPGKERELVAAISTRGSSTYYADSVKGRFTISRDNAKNTVYFQMNSLKPEDTAVYYCAVDQYKYDWFYDYYGYTYGYWGQGTQVTVSS | high polyreactivity
6 | QVQLVESGGGLVQAGGSLRLSCAASGFTFRYYAMGWYRPAPGKERELVAGISWSGSRTYYADSVKGRFTISRDSAKNTVYLQMNSLKPEDTAVYYCAKVNSYGPVPDRYDYWGQGTQVTVSS | high polyreactivity
7 | QVQLVESGGGLVQAGGSLRLSCAASGITFDYYDMGWYRQAPGKERELVATITSDGSTYYADSVKGRFTISRDNAKNTVYLQMNSLKPEDTAVYYCNARRRTVPYRYDYWGQGTQVTVSS | high polyreactivity
8 | QDQLVESGGGLVQAGRSLRLSCAASGRIIKLYAMGWYRQAPGKERELVAAISKSGGNTYADSVKGRFTISRDNAKNTVYLQMNSLKPEDTAVYYCAASVQSTSDPFDYWGQGTQVTVSS | low polyreactivity
9 | QVQLVESGGGLVQAGGSLRLSCAASGSIFYSNAMGWYRQAPGKERELVAAITLSGRRTYYADSVKGRFTISRDNAKNTVYLQMISLKPEDTADYYCATVPYKTGYKFEYWGQGTQVTVSS | high polyreactivity
10 | QVQLVESGGGLVQAGGSLRLSCAASGSTFDVNTMGWYRQAPGTERELVAAIRLRGGSTYYADSVKGRFTISRDNAKNTVYLQMNSLKPEDTAVYYCAADYTLIYDYWGQGTQVTVSS | low polyreactivity
11 | QVQLEESGGGLVQAGGSLRLSCAASGYTFYYYAMGWYRQAPGKERELVAAISRSGGSTYYADSVKGRFTISRDNAKNTVSLQMNSLKQEDTAVYYCAARRLVGAERPGYDYWGQGTQVTVSS | high polyreactivity
12 | QVQLVESGGGLVQAGGSLRLSCAASGYTFYANAMGWYRQAPGKEREFVASITWSGGSTYYADSVKGRFTISRDNAKNNVYLQMHSLKPEDTAVYYCAAESWFKYDYWGQGTQVTVSS | low polyreactivity
13 | QLQLVESGGGLVQAGGSLRLTCAASGSIFEVKAMGWYRQAPGTERELVATITYSGGSTYYADSVKGRFTISRDNAKKTVYFQMNSLKPEDTAVYYCATHYVVWELYIYDYWGQGTQVTVSS | low polyreactivity
14 | QVQLVESGGCLVQAGGSLRLSSAASGSTFRVNAMGWYRQAPGKERELVAAISFSGGSTYYADSVKGRFTISRDNAKNTVYLQMNSLKPEDTAVYYCNVDIYLGGDYYYSRYTWGLDYWGQGTQVTVSS | low polyreactivity
15 | QVQLVESGGGLFQAGGSLRLSCDPSGSIFEYYAMGWYRQAPGKERELVAAITQSGGSTYYADSVKGRFHKFTRQCEEYRLFPDEQPETGRYRGISLAADAECYQNDYALDYWGQGTQVTVSS | low polyreactivity
16 | QVQLVESGGGLVQAGGSLRLSSAASGFTFVGYAMGWSRQAPGKERELVAAITGRGGTTYYADSVKGRFTISRDNAKNTVYLQMNSLKPEDTSVYYCAADTPSFWTEVDSWGQGTQVTLSS | low polyreactivity
17 | QVQLVESGGGLVQAGGSLRLSCAASGSTLVLNAMGWYRQAPGKERELVAAISRGGGSTSYADSVKGRFTISRDNAKNTVYLQMNSLKPEDTAVYYCNAYTYYHANHEQGFGYWGQGTQVTVSS | low polyreactivity
18 | QVQLVESGGGLVQAGGSLRLSCAASGITFGKYAMGWYRQAPGKERELVAAISWSGGSTYYADSVKGRFTISRDNAKNTVYLQMNSLKPEDTAVYYCAASYPYRRGEFYYYRSSDDDYWGQGTQVTVSS | high polyreactivity
19 | QVQLVESGGGLVQAGGSLRLSCAASGSIFAPYAMGWYRQAPGKEREFVATITWGGGRTYYADSVKGRFTISRDNAKNTVYLQMNSLKPEDTAVYYCAAAIYYGSLGLFDYWGQGTQVTVSS | high polyreactivity
20 | QVQLVESGGGLVQAGGSLRLSCAASGFTFGKYGMGWYRQAPGKERELVAAISASGGITYYADSVKGRFTISRDNAKNTVYLQMNSLKPEDTAVYYCAVRRRYGAFISYDYWGQGTQVTVSS | high polyreactivity
21 | QVQLVESGGGLVQAGGSLRLSCADSGRIFDLNAMGWYRQAPGKERELVAAITWSGDSTYYADSVKGRFTISRDNAKNTVYLQMNSLKPEDTAVYYCAAASRTSYSWVDYEFDYWGQGTQVTVSS | low polyreactivity
22 | QVQLVESGGGLVQAGGSLRLSCAASGSTFKPYAMGWYRQAPGKERELVAAITWTGGSTYYADSVKGRFTISRDNAKNTVYLEMNSLKPDDTAVYYCNAYLRWYITLLRYLAGGDYWGQGTQVTVSS | high polyreactivity

Row | Sequence | polyreactivity (PSR sort gate)
23 | QVQHVESGGGLVQAGGSLRLSCAASGSIIVRYAMGWYRQAPGKERELVASISKRGGSTYYADSVKGRFTISRDNAKNTVYLQMKSLKPDDTAVYYCAAVGYYLVKFDYWGQGTQVTVSS | high polyreactivity
24 | QDQLVESGGGLVQAGGSLRLSCAASGNIFDYYAMGWYRQAPGKERELVATITWSSGRTYYADSVKGRFTISRDNAKNTVYLQMNSLKTEDTAVYYCNTRSYTRYDYWGQGTQVTVSS | low polyreactivity
25 | QVQLVESGGGLVQAGGSLRLSCAASGSTFKHYAMGWYRQAPGKERELVAAISSGGSTKYADSVKGRFTISRDNAKNTVYLQMNSLKPEDTAVYYCAARSFFKMYYWGQGTQVTVSS | low polyreactivity
26 | QVQLVESGGVLVQAGGSLRLSCAASGRTFYLYAMGWYRHAPGKERELVAAISWSDDTTYYADSVKGRFTISRDNAKNTVYLQRNSLKPEDTAVYYCAAEQEQVALYDYWGQGTQVTVSS | high polyreactivity
27 | QVQHVESGGGLVQAGGSLRLSCAASGSILDGNTMGWYRQSPGKARELVAALTWDCTSTYYADSVKGRFTISRDNAKNSVYLQMNSLKPEDTAVYYCAATKGYSDPSTLYYAYIHYDYWGQGTQVTVSW | low polyreactivity
28 | QVQLVESGGGLVQAGGSLRLSCAASGSIFVLNAMGWYTQAPGKERELVAAINKSGGRTYYADSVKGRFTISRDNAKNTVYLQMNSLKPEDTAVDYCAVDISVTGSSNRYGYWGQGTQVTVSS | high polyreactivity
29 | QVQLVESGGGLVQAGGSLRLSCAASGIIFRYYAMGWYRQAPGKEREFVAAISSSGVRTYYADSVKGRFTISRDNAKNTVYLQMNSLKPEDTAVYYCAAASRANSYRYNYWGQGTQVTVSS | high polyreactivity
30 | QVQLVESGGGLVQAGGSLRLSCAASGITFGGYAMGWYRKAPGKERELVAAITSSGGITYYADSVKGRFTISRDNAKKTVYLLLNSLKPEDTAVYYCAKVPLEIVTIRDDEDYWGQGTQVTVSS | low polyreactivity
31 | QVQLVESGGGLVQAGGSLRLSCAASGFIFNYYAMGWYRQAPGKEREFVAAITWRGGSTNYADSVKGRFTISRDNAKNTVYLQMNSLKPEETAVYYCAAYSVWGGSYLALDYWGQGTQVTVSS | low polyreactivity
32 | QVQLVESGGCLVQAGGSLRLMCAASGSTFRVNAMGWSRQAPGKERELVAAITRGGSTNYADSVKGRFTISRDNAKNTVYLQMNSLKPEDTAVYYCNAGDDFGRYVPFSWGRFDYWGQGTQVTESS | low polyreactivity
33 | QVQLVESGGGLVQAGGSLRLSSAASGITFERNGMGWYRQAPGKERELVAAIRSGGSTYYADSVKGRFTISRDNAKITVYLQMNSQKPEDTAVYYCAAVTQGGYTYLGDYWGQGTQVTVSS | low polyreactivity
34 | QVQLVESGGGLVQAGGSLRLSCAASGLIFRQYPMGWYRQAPGKERELVAAITGSGGRTYYADSVKGRFTISRDNAKNTVYLQMNSLKPEDTAVYYCARPNLLSGDYWGQGTQVTVSS | high polyreactivity
35 | QVQLVESGGGLVQAGGSLRLSCAASGSTFDTNTMGWYIQAPGKERELVAAITSSGTSTSYADSVKGRFTISRDNAKNTVYLQMNSLKPEDTAVYYCAALRPGGGDYSDYDYWGQGTQVSVSS | low polyreactivity
36 | QVQLVESVGGVVQAGGSLGLSCAASGRPFGRNVMGWYRQAPGKERELVAAISRSGGSTYYADSVKGRFTISRDNAKNTVYFQMNSLKPEDTAVYYCAAYSVGDYYWGQGTQVTVSS | high polyreactivity
37 | QVQLVESGGGLVQAGGSLRLSCAASGSTLSFNAMGWYRQAPGKERELVAGITYSGGSTYYADYVKGRFTISRDNAKNTVYLQMNSLKPEDTAVYYCNKASGVYYGHLDYWGQGTQVTVSS | low polyreactivity
38 | QVQLVESGGGLVQAGGSLRLSCAASGRTIYRYALGWYRQAHGKERELVSRIRSGGSTNYADSVKGRFTISRDNAKNTVYLQMNSLKPEDTAVYYCAARVLDLGKNTYYRYALGYWGQGTQVTVSS | high polyreactivity
39 | QVQLVESGGGLVQAGGSLRLSCDASGITYHNYAMGWYRQAPGKEREYVAAITRNTASSYYADSVKGRFSISRDKAKNTVYFQMNSLKPEDTAVYYCAATDKKHRTAYDSWGQGTQVTVSS | low polyreactivity
40 | QVQLVESGGGLVQAGGSLRLSCAASGSIFVTYAMGWYRQAPGKERELVATITSSGGSTYYADSVKGRFTISRDNAKNTVYLQMNSLKPEDTAVYYCATDFGASVWDYFRRVYYWFGYWGQGTQVTVSS | low polyreactivity
41 | QVQLVESGGGLVQAGGSLRLSCAASGFIFQYYAMGWYRQAPGKERELVAAINWSGGSTYYADSVKGRFTISRDNAKNSVYLQMNSLKPEDTAVYYCAADEYTSGYEYWGQGTQVTVSS | high polyreactivity
42 | QVQLVESGGGLVQAGGSLRLSCAASGRIFTPNAMGWYRQAPGKERELVAAISRSGGSTYYADSVKGRFTISRDTAKNTVYLQMKSLKPEDTAVDYCNKLRTPSSGLDYWGQGTQVTVSS | high polyreactivity
43 | QVQLVESGGGLVHAGGSLRLSCAASGYTFRYYAKGWYRQAPGKERELVAAINSGDITNYADSVKGRFTITRDNAKTTVYLQMNSLKPEDTAVYFCARSTFSLYDYWGQGTQVTVSS | low polyreactivity
